Measurements: IntAct's records for PubMed 31515488

B1: "Peptide-N(4)-(N-acetyl-beta-glucosaminyl)asparagine amidase" (Homo sapiens), Q96IV0 (parent)
chain: MAAAALGSSSGSASPAVAELCQNTPETFLEASKLLLTYADNILRNPNDEKYRSIRIGNTAFSTRLLPVRGAVECLFEMGFEEGETHLIFPKKASVEQLQKIRDLIAIERSSRLDGSNKSHKVKSSQQPAASTQLPTTPSSNPSGLNQHTRNRQGQSSDPPSASTVAADSAILEVLQSNIQHVLVYENPALQEKALACIPVQELKRKSQEKLSRARKLDKGINISDEDFLLLELLHWFKEEFFHWVNNVLCSKCGGQTRSRDRSLLPSDDELKWGAKEVEDHYCDACQFSNRFPRYNNPEKLLETRCGRCGEWANCFTLCCRAVGFEARYVWDYTDHVWTEVYSPSQQRWLHCDACEDVCDKPLLYEIGWGKKLSYVIAFSKDEVVDVTWRYSCKHEEVIARRTKVKEALLRDTINGLNKQRQLFLSENRRKELLQRIIVELVEFISPKTPKPGELGGRISGSVAWRVARGEMGLQRKETLFIPCENEKISKQLHLCYNIVKDRYVRVSNNNQTISGWENGVWKMESIFRKVETDWHMVYLARKEGSSFAYISWKFECGSVGLKVDSISIRTSSQTFQTGTVEWKLRSDTAQVELTGDNSLHSYADFSGATEVILEAELSRGDGDVAWQHTQLFRQSLNDHEENCLEIIIKFSDL
B2: Polymerase delta-interacting protein 3 (Homo sapiens), Q9BY77 (parent)
chain: MADISLDELIRKRGAAAKGRLNARPGVGGVRSRVGIQQGLLSQSTRTATFQQRFDARQKIGLSDARLKLGVKDAREKLLQKDARFRIKGKVQDAREMLNSRKQQTTVPQKPRQVADAREKISLKRSSPAAFINPPIGTVTPALKLTKTIQVPQQKAMAPLHPHPAGMRINVVNNHQAKQNLYDLDEDDDGIASVPTKQMKFAASGGFLHHMAGLSSSKLSMSKALPLTKVVQNDAYTAPALPSSIRTKALTNMSRTLVNKEEPPKELPAAEPVLSPLEGTKMTVNNLHPRVTEEDIVELFCVCGALKRARLVHPGVAEVVFVKKDDAITAYKKYNNRCLDGQPMKCNLHMNGNVITSDQPILLRLSDSPSMKKESELPRRVNSASSSNPPAEVDPDTILKALFKSSGASVTTQPTEFKIKL
partner: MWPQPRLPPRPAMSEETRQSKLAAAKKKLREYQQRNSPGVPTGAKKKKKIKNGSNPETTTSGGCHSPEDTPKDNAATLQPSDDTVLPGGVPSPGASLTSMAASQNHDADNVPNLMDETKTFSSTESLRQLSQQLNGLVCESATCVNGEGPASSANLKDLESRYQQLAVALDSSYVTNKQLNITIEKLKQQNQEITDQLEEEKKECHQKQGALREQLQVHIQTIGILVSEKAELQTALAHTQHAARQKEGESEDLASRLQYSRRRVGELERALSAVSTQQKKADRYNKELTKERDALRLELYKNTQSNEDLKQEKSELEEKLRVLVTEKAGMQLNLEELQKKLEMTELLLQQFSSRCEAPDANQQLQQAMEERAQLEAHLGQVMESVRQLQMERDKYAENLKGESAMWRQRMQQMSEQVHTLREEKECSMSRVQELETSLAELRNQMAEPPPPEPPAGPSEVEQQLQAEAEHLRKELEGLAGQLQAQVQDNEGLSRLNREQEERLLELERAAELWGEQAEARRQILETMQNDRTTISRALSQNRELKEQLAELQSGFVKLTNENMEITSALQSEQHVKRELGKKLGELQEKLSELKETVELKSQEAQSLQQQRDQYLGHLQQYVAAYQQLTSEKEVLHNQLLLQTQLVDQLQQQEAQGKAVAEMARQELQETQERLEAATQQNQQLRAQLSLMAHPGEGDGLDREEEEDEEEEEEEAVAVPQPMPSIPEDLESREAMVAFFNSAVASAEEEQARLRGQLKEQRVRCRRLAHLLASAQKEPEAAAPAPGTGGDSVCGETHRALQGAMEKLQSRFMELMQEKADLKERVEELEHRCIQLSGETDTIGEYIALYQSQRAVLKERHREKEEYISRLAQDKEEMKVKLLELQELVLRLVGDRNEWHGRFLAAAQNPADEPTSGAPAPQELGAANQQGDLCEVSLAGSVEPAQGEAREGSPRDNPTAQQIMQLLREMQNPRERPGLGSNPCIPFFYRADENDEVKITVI
B3: Pachytene checkpoint protein 2 homolog (Homo sapiens), Q15645 (parent)
chain: MDEAVGDLKQALPCVAESPTVHVEVHQRGSSTAKKEDINLSVRKLLNRHNIVFGDYTWTEFDEPFLTRNVQSVSIIDTELKVKDSQPIDLSACTVALHIFQLNEDGPSSENLEEETENIIAANHWVLPAAEFHGLWDSLVYDVEVKSHLLDYVMTTLLFSDKNVNSNLITWNRVVLLHGPPGTGKTSLCKALAQKLTIRLSSRYRYGQLIEINSHSLFSKWFSESGKLVTKMFQKIQDLIDDKDALVFVLIDEVESLTAARNACRAGTEPSDAIRVVNAVLTQIDQIKRHSNVVILTTSNITEKIDVAFVDRADIKQYIGPPSAAAIFKIYLSCLEELMKCQIIYPRQQLLTLRELEMIGFIENNVSKLSLLLNDISRKSEGLSGRVLRKLPFLAHALYVQAPTVTIEGFLQALSLAVDKQFEERKKLAAYI
partner: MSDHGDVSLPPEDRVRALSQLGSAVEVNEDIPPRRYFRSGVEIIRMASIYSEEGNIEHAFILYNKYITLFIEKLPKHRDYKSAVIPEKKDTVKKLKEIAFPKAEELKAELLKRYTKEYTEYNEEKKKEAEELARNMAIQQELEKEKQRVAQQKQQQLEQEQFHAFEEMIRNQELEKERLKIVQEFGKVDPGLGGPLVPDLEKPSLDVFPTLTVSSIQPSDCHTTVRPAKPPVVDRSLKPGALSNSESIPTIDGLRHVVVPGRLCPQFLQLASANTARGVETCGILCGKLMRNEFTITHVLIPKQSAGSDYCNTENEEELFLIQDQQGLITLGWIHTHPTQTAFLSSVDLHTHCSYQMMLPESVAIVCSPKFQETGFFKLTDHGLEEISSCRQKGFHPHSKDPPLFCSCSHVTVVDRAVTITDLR
B4: Syntaxin-3 (Homo sapiens), Q13277 (parent)
chain: MKDRLEQLKAKQLTQDDDTDAVEIAIDNTAFMDEFFSEIEETRLNIDKISEHVEEAKKLYSIILSAPIPEPKTKDDLEQLTTEIKKRANNVRNKLKSMEKHIEEDEVRSSADLRIRKSQHSVLSRKFVEVMTKYNEAQVDFRERSKGRIQRQLEITGKKTTDEELEEMLESGNPAIFTSGIIDSQISKQALSEIEGRHKDIVRLESSIKELHDMFMDIAMLVENQGEMLDNIELNVMHTVDHVEKARDETKKAVKYQSQARKKLIIIIVLVVVLLGILALIIGLSVGLN
B5: TBC1 domain family member 7 (Homo sapiens), Q9P0N9 (parent)
chain: MTEDSQRNFRSVYYEKVGFRGVEEKKSLEILLKDDRLDTEKLCTFSQRFPLPSMYRALVWKVLLGILPPHHESHAKVMMYRKEQYLDVLHALKVVRFVSDATPQAEVYLRMYQLESGKLPRSPSFPLEPDDEVFLAIAKAMEEMVEDSVDCYWITRRFVNQLNTKYRDSLPQLPKAFEQYLNLEDGRLLTHLRMCSAAPKLPYDLWFKRCFAGCLPESSLQRVWDKVVSGSCKILVFVAVEILLTFKIKVMALNSAEKITKFLENIPQDSSDAIVSKAIDLWHKHCGTPVHSS
partner: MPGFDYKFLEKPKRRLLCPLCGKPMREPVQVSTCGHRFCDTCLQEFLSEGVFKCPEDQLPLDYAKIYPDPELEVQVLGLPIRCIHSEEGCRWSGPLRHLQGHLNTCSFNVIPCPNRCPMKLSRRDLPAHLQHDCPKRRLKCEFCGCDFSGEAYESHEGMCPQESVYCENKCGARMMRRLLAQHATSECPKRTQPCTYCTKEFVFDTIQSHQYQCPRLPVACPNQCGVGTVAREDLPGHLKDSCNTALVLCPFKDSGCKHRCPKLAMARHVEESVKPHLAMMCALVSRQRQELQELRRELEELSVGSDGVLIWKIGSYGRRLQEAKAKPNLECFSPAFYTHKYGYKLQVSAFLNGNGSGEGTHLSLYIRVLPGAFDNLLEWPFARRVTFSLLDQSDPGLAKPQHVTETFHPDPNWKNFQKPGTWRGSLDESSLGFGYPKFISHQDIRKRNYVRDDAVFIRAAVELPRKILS

Variants of: B1
Details: with ubql1_human UBQLN1, Q9UMX0
ubql1_human UBQLN1, Q9UMX0, sequence (Q9UMX0 whole entry): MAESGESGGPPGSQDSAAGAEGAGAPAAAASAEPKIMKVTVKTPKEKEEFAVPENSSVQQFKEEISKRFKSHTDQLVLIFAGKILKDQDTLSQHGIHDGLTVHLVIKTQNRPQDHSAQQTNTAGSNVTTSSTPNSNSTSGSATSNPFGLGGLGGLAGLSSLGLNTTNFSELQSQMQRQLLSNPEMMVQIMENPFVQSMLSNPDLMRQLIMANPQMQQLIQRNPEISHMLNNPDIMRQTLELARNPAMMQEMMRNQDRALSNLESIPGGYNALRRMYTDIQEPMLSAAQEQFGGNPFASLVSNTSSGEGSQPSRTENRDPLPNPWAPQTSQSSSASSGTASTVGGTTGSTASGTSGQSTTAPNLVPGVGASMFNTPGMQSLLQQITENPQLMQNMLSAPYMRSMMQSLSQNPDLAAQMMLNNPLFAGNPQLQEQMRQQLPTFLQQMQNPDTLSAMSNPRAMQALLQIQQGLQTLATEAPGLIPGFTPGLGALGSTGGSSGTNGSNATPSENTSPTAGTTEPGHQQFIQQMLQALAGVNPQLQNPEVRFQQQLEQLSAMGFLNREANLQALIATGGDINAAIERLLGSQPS

Row | Variant | effect of a mutation on the interaction
1 | V184F | with no effect
2 | F292L | with no effect

Variants of: B1
Details: with gucd1_human GUCD1, Q96NT3
gucd1_human GUCD1, Q96NT3, sequence (Q96NT3 whole entry): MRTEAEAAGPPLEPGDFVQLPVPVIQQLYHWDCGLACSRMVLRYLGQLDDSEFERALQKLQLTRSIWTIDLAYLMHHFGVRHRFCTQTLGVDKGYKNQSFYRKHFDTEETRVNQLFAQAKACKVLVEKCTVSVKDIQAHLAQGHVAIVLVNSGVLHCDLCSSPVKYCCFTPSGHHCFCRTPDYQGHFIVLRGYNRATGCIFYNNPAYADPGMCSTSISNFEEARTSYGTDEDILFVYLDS

Row | Variant | effect of a mutation on the interaction
3 | V184F | with no effect

Variants of: B1
Details: with trad1_human TRAFD1, O14545
trad1_human TRAFD1, O14545, sequence (O14545 whole entry): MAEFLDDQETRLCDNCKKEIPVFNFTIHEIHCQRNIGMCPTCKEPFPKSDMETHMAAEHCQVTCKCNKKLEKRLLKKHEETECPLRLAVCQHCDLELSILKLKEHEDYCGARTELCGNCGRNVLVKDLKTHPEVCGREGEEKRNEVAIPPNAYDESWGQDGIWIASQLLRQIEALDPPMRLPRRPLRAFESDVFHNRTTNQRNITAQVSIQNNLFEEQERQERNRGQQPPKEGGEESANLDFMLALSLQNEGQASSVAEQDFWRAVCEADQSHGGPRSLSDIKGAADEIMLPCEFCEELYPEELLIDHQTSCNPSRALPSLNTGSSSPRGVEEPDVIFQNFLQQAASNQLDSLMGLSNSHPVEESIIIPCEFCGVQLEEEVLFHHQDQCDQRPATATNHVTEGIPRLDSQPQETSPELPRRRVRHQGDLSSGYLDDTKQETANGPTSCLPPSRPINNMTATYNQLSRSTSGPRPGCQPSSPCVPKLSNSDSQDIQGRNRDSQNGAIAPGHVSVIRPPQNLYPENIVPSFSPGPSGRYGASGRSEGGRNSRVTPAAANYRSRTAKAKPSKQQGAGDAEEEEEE

Row | Variant | effect of a mutation on the interaction
4 | V184F | with no effect
5 | F292L | with no effect

Variants of: B2
Details: with goga2_human GOLGA2, Q08379

Row | Variant | effect of a mutation on the interaction
6 | A16V | with no effect
7 | A15T | with no effect
8 | R118Q | disrupting interaction strength

Variants of: B3
Details: with stabp_human STAMBP

Row | Variant | effect of a mutation on the interaction
9 | G409E | with no effect

Variants of: B4
Details: with stx4_human STX4, Q12846
stx4_human STX4, Q12846, sequence (Q12846 whole entry): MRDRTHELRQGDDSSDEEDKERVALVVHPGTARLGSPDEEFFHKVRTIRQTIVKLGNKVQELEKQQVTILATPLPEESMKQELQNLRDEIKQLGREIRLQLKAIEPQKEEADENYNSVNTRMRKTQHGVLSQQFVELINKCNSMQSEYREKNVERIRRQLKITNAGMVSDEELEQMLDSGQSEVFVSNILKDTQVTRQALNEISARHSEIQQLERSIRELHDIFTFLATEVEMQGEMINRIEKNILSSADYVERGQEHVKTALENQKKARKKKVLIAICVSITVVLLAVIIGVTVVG

Row | Variant | effect of a mutation on the interaction
10 | G276S | with no effect
11 | H198Y | disrupting interaction strength

Variants of: B5
Details: with traf4_human TRAF4, Q9BUZ4

Row | Variant | effect of a mutation on the interaction
12 | L67W | with no effect
